Experimental findings from patent publication US20220031841A1 (ABSCI, published 2022) are described below.

The target of test [1] is T1, O-linked N-acetylglucosamine (GlcNAc) transferase (OGT) (human, UniProt O15294 2-1046).
T1 construct: The array carries full-length recombinant human proteins expressed in S. cerevisiae; also called Human OGT
T1 sequence: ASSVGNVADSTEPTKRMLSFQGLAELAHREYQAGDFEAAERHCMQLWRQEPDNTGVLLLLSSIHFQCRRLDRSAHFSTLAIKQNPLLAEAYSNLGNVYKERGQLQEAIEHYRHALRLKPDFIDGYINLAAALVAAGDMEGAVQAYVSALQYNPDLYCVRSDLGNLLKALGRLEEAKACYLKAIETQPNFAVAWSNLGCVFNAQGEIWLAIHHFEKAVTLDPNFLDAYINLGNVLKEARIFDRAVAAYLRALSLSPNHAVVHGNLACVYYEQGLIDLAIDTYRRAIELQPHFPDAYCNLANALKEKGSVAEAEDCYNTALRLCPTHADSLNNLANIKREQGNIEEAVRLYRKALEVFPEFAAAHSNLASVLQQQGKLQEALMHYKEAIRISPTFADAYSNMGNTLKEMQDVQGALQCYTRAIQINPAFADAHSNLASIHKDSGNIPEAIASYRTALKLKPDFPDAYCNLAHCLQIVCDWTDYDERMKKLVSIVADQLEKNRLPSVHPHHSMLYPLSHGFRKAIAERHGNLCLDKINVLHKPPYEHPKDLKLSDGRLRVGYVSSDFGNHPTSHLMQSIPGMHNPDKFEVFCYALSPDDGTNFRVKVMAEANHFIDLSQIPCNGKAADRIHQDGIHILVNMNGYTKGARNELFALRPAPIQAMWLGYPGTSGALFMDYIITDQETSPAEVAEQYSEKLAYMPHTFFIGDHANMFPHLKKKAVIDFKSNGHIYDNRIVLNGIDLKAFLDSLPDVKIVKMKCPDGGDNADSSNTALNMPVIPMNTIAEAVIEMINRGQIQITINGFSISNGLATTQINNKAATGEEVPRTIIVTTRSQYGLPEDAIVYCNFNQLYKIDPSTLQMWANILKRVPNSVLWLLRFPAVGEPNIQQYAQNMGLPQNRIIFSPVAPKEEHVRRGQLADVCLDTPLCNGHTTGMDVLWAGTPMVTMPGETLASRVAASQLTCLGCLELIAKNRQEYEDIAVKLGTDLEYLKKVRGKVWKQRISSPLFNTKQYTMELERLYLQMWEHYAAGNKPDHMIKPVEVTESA
Nature of the test: HuProt protein array, F635 z-score. In outline:
(§1)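 Cross-reactivity screen: test antibody at 1 μg/ml, 1 h at room temperature, on nitrocellulose-coated slides printed with yeast-derived human proteins. Readout via Alexa-647 anti-human Fc secondary, scored as z-score.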

Test [2] deals with T2, Melanoma-associated antigen 3 (MAGE-A3) (human, UniProt P43357 1-314).
T2 construct: The array carries full-length recombinant human proteins expressed in S. cerevisiae; also called Human MAGE-A3
The test can be described thus: HuProt protein array, antibody at 1 µg/ml, Alexa-647 anti-human IgG Fc; F635 signal as z-score; MAGEA3 replicate 1. The source says: (§2) Large scale protein arrays are versatile and sensitive platforms for antibody specificity evaluation. They can be used for the evaluation of protein binding or affinity reagents that are widely employed in research and clinical applications. The microarray used in our target identification experiment provides the largest number of unique, full-length, individually purified human proteins on a single microscope slide. This allows thousands of interactions to be profiled in a high-throughput manner. The hill-length recombinant proteins are expressed in the yeast S. cerevisiae, purified, and printed on glass slides in duplicate along with a set of control proteins (GST, BSA, histones, IgG, etc.). Such microarray is not restricted to a particular type of surface coating, although the default is glass coated with ultra-thin nitrocellulose film for the non-covalent, yet irreversible, capture of active proteins to the surface. Fourteen Protein arrays were used for the antibody cross-reactivity assay of the samples. […] The antibody-antigen binding score was calculated for each protein represented on the array and expressed as z-scores. […]
(§3) Z score is the average Z score of the duplicate spots of a given protein (each protein is printed in duplicate on a HuProt™ array). The Z score of each spot on a given array is calculated according to the equation: […]

Test [3] deals with T1, O-linked N-acetylglucosamine (GlcNAc) …. The test can be described thus: HuProt protein array, antibody at 1 µg/ml, Alexa-647 anti-human IgG Fc; F635 signal as z-score; OGT replicate 1.
From the text: as §2, §3

For test [4], the target named is T3, Alpha-taxilin (TXLNA) also known as interleukin-14A (human, UniProt P40222 1-546).
T3 construct: The array carries full-length recombinant human proteins expressed in S. cerevisiae; also called IL-14A; TXLNA/IL-14A
Nature of the test: HuProt protein array, antibody at 1 µg/ml, Alexa-647 anti-human IgG Fc; F635 signal as z-score; TXLNA replicate 1.
From the text: as §2, §3

The target in test [5] is T4, Kinesin light chain 4 protein (KLC4) (human, UniProt Q9NSK0 2-619).
T4 construct: The array carries full-length recombinant human proteins expressed in S. cerevisiae; also called Human KLC4
Nature of the test: HuProt protein array, antibody at 1 µg/ml, Alexa-647 anti-human IgG Fc; F635 signal as z-score; KLC4 replicate 1.
From the text: as §2, §3

Test [6] has as its target T4, Kinesin light chain 4 protein (KLC4). The test can be described thus: HuProt protein array, F635 z-score. In outline: as §1
Test [7] addresses T5, Inorganic pyrophosphatase (PPA1) (human, UniProt Q15181 2-289).
T5 construct: The array carries full-length recombinant human proteins expressed in S. cerevisiae; also called Human PPA1
T5 sequence: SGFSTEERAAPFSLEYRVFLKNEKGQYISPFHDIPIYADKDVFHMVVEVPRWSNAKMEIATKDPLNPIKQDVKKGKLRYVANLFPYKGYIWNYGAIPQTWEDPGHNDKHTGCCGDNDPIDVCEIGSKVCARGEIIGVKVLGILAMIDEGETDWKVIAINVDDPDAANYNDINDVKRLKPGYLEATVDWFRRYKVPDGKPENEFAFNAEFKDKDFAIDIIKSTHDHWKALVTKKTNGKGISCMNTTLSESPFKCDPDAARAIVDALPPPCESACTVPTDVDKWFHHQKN
The test can be described thus: HuProt protein array, antibody at 1 µg/ml, Alexa-647 anti-human IgG Fc; F635 signal as z-score; PPA1 replicate 1.
From the text: as §2, §3

T4 sequence (Q9NSK0 2-619 limits assumed): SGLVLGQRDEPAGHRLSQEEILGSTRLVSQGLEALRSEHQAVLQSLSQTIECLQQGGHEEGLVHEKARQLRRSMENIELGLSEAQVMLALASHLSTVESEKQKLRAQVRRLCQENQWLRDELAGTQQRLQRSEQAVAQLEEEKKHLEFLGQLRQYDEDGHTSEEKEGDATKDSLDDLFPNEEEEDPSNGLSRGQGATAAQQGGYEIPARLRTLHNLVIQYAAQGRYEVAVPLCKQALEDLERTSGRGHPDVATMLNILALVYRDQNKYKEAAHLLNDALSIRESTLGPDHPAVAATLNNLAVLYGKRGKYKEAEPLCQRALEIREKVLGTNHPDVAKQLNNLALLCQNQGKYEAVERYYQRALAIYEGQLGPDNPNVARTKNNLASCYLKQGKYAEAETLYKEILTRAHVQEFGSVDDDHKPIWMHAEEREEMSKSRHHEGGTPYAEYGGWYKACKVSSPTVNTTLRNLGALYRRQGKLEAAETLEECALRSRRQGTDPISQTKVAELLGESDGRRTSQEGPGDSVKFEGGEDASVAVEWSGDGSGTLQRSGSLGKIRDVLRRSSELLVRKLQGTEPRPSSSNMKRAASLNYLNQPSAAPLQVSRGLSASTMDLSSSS
T2 sequence (P43357 whole entry): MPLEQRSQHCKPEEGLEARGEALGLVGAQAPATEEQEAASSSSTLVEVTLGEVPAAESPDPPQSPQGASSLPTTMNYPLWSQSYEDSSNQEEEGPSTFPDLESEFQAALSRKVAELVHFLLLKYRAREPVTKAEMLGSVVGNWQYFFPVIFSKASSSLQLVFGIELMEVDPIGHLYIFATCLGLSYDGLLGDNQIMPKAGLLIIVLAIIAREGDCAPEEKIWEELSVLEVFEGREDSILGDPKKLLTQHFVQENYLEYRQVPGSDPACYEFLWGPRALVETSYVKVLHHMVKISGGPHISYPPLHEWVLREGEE
T3 sequence (P40222 whole entry): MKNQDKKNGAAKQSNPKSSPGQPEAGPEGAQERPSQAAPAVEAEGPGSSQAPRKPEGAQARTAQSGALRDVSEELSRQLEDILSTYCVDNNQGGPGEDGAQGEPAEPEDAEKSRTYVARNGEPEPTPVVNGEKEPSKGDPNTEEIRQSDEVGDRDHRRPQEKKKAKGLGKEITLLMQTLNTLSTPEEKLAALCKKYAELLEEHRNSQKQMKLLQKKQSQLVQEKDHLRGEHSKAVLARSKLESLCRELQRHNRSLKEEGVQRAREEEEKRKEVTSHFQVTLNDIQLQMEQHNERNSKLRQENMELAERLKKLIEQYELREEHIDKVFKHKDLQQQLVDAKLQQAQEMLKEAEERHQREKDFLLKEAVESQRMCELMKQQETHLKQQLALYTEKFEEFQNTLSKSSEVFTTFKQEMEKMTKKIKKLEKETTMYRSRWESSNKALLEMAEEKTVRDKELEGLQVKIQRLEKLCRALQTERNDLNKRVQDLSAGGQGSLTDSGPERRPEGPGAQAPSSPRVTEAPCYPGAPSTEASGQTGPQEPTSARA

B1: TMEL1008 (antibody, V domains shown)
VH: QVQLVQSGAEVKKPGSSVKVSCKASGGTFNRDGIIWVRQAPGQGLEWMGRIIPILGIANYAQKFQGRVTIIADKSTSTAYMELSSLRSEDTAVYYCARESEVGRGMDVWGQGTTVTVSS
VL: ASALTQPASVSGSPGQSITISCTGTSSDVGDYNYVSWYQQHPGKAPKLMIYDVSNRPSGVSHRFSGSKSGNTASLTISGLQAEDEADYYCSSYTISSTLGVFGPGTKVTVLG
notes: It was detected with an anti-human IgG Fc gamma secondary antibody
B1: the figures for the binding result in test [1] and in test [2] were “no binding (tested: 1 µg/ml)” and “binds”, respectively.

B2: TMEL1014 (antibody, V domains shown)
VH: SVQLVESGGGVVQPGRSLRLSCAASGFTFSSYTMHWVRQAPGKGLEWVALISYDGSNKYYADSVKGRFTISRDNPKNTLYLQMNSLRVEDTAVYYCARDWTLGYWGQGTLVTVSS
VL: VSSELTQDPAVSVALGQTVRITCQGDSLRNYYANWYQQKPGQAPILVIYDKNNRPSGIPDRFSGSSSGNTASLTITGAQAEDEADYYCNSRDSSGYHLVFGGGTKLTVLG
notes: as for B1
On to B2, for which, in test [3], the binding result is given as “binds”.

B3: TMEL1002 (antibody, V domains shown)
VH: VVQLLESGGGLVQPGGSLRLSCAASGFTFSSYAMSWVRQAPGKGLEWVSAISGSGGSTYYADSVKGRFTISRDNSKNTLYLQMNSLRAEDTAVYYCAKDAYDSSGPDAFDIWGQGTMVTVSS
VL: ASALTQPASVSGSPGQSITISCTGTSSDVGDYNYVSWYQQHPGKAPKLMIYDVSNRPSGVSNRFSGSKSGNTASLTISGLQAEDEADYYCSSYTSSSTLVFGGGTKLTVLG
With B3, in test [1], the binding result is recorded as “no binding (tested: 1 µg/ml)”.

B4: TMEL1009 (antibody, V domains shown)
VH: PVQLVQSGAEVKKPGSSVKVSCRASGGTFSNYGLNWVRQAPGQGLEWMGGIIPIFGSVNYAQKFQDRVTITADESTSTTYMDLNSLRSEDTAVYYCATERGHNMERAFDFWGQGTLVTVSS
VL: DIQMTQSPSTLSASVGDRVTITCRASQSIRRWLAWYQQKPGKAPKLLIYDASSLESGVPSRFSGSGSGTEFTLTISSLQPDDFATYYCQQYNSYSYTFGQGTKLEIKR
For B4, the binding result in test [1] is recorded as “no binding (tested: 1 µg/ml)”.

B5: TMEL1012 (antibody, V domains shown)
VH: PLQLQESGPGLVKPSETLSLTCTVSGDSITTTYYWGWIRQPPGKGLEWIASIYFTGSTFHNPSLKSRVTMSVDTSKNQFSLNLSSVTAADTAVYYCARRVGNWNYVWFDPWGQGTLVSVSS
VL: AYVLTQPPSVSVAPGQTARMTCGGNNIGSKSVHWYRQRPGQAPVLVVYDDTDRPSGIPERFSGSNSGNTATLTISRVEAGDEADYYCQVWDTNSDHVVFGGGTKLTVLG
Take B5: in test [1], the binding result was “no binding (tested: 1 µg/ml)”.

B6: TMEL1011 (antibody, V domains shown)
VH: PVQLVQSGAEVKKPGSSVKVSCKASGGTFSSYSFNWVRQAPGQGLEWMARIIPILGLANYAQKFQGRVTLTADESTSTAYMELSSLRSEDTAIFYCAGMVLGQLGFDPWGQGTLVTVSS
VL: QFMLTQPHSVSESPGRTVTISCTRSSGSIARNYVHWYQHRPGSSPTTVIYEDDQRPSGVPDRFSGSIDSSSNSASLTISGLKPEDEADYFCQSYDSNIWVFGGGTKLTVLG
notes: as for B1
On to B6, for which the values for the binding result in test [1] and in test [4] were “no binding (tested: 1 µg/ml)” and “binds”, respectively.

B7: TMEL1007 (antibody, V domains shown)
VH: HVHLVQSGAEVKKPGSSVKVSCTASGGSFSSNPISWVRQAPGHGLQWMGGFVPLFGTANYAPSFHGRLTITADESTSTTYMELNSLRSEDSAVYYCARDFNWNFDFWGQGTLVTVSS
VL: QSALTQPASVSGSPGQSITISCTGTSSDIGSYNLVSWYRQYPGKAPKLMIYEVNKRPSGVSNRFSGSKSGNTASLTISGLQAEDEADYYCCSYAGTTTFVIFGRGTKLTVLG
notes: as for B1
Regarding B7, the binding result is on record as “no binding (tested: 1 µg/ml)” in test [1] and “binds” in test [5].

B8: TMEL1013 (antibody, V domains shown)
VH: PVQLVQSGAEVKKPGSSVKVSCKASGGTFSSYTINWVRQAPGQGLEWMGRIIPILGVANYAQKFQGRVTITADKSTSTAYMDLSSLRSEDTAVYYCAREWERAFDYWGQGTLVTVSS
VL: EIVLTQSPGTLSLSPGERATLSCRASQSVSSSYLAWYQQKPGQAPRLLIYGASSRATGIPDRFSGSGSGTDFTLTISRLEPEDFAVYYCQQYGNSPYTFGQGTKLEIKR
On to B8, for which the binding result in test [6] and in test [1] was “no binding (tested: 1 µg/ml)” each time.

B9: TMEL1004 (antibody, V domains shown)
VH: QITLKESGPTLVKPTQTLTLTCTFSGFSLNTPGVGVGWIRQPPGKALEWLALIYWDDDKRYRPSLESRLTITKDTSKNHVVLTMTNMDPVDTATYFCAHKNLQYSEWFDPWGQGTLVIVSS
VL: EMVLTQSPATLSLSPGERATLSCRASQSVSRNSLAWYQQRPGQTPRLLIYGASSRATGIPDRFSGSGSGTDFTLIISRLEPEDFAVYFCLQYDESPYTFGQGAKLEIKR
Turning to B9, the binding result in test [1] is “no binding (tested: 1 µg/ml)”.

B10: TMEL1010 (antibody, V domains shown)
VH: QVQLVQSGAEVKKPGASVKVSCKASGYTFSSYGISWVRQAPGQGLEWMGWISAYNGNTNYAKKLQGRVTMTTDTSTSTAYLELRSLRSDDTAVYYCARGDGPFDYWGQGTLVTVSS
VL: EIVMTQSPATLSVSPGERATLSCWASQSVSSSLAWYQQKPGQAPRLLMYGASNRATGIPARFSGSGSGTEFTLTISSLQSEDFAVYYCQQYNKWPPDTFGQGTKLEIKR
notes: as for B1
Take B10: the binding result in test [1] is “no binding (tested: 1 µg/ml)”; in test [7], “binds”.
